The text below walks through data of a protein production outcome set (Wang et al. 2014).
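Further: failed if final PepcDB status was selected cloned or expressed and not failed if soluble or beyond.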

A short description of this series: label from the status in PepcDB records.
For “MLDHVIRGATVVDGTGAPAYTADVGIRDGRIAAVGTVTEPARAGEDAAGLVLAPGFVDPHTHYDAQLFWDPYATPSLNHGVTTVAGGNCGFTLAPLNPDRPQDADYTRRMMSKVEGMSLVALEEGAPWSWHTFGDYLDALEGRIAVNAGFMVGHCALRRYVMGPDAVGGRPTREQLERMLALFHEAMDAGAWGLSTTQSSTHSDGDGQPVASRHARPAELLALARAVGEHEGTQIEAIVAGCLDQFSDAEIDLFVEMSAAAGRPLNWNVLTIDAAVPERVPRQLTASERARKAGGRVVALTMPILTPMNMSLGTFCALNLIPGWGEVLGLPVPERIARLRDPDVRAELLRRADSKEAGVFRRLANFGRYVIGDTYSTANEGLTGRVVNDIAAERGQDPFHCLVEICAADELRTVLWPMPTDNDPDSWALRAETWRHKDVLLGGSDAGAHLDRMCGAPYTTRFLGDCLRGRKLVPLEQAVKMLTDDPARLFGLRDRGRIREGFHADLVLFDPARIDAGKATLVHDLPGDSPRLDSKAIGVTAVWVNGVEAIRDDVVTGAVPGKVLRSGRDTRTVSTR”, the protein production entry was “failed”.
“MLDKNVLNEIGSKVNEILASSPARDVEKNMRAMLTGAFARLDLVTREEFDVQQEVIKRTRIKLAELEEKVRKLEQQLQQPAEVVSSNETGDA”: the protein production entry is “not failed”.
Turning to “MLDLAAPFFLLLLPLPFLVRRFLPPHAAQEGALYLPEAFAAAARPTSAFARSERWEGALRAILWLALVLALAGPERLKAVPDLSASGREIVLTLDMSGSMLIEDFDIDGVQSTRLEAVKRVARSFVEERQGDRIGLVLFANRAYVAAPLTFDLAAVGRAIEEASIGITGRSTAIADGLGLALKSVTESSAASRVIVLLSDGQDNAHQIDARQVAGLAARHGVRIHTIALGPDDLETRPAARDAVDTATLRAIAEASGGRSYRVRGMEDLRAMAADLDRLEPNPAERPPVLVPEPLWPWPALLALGAALVLGLRRAGLAPWPRRAGRAA”, the protein production entry is “failed”.
The entry for “MLDLNPNQSYIIRINKKGGINMHWLADLLAAIGVVLNGIPQGIMAMSLGFAVFPTAFSFGLVGLINGVASSVAPVSFQAESLALVGHLGHDLRERSSIIFLGASLMFVIGLTGTLPLIVHSLGNQLMAAMMAGVGLMLAKIALQMAHEQPQFGWLSIGLAGVTYLISKDLVWTIAVSVIGTSCYAATTHYRVALPEHVTTRKLQFVRPQFSFKILRGALSLACLNIGANLSYGLITGQMTGQHPNPVNLNLLTSSQALADLGTSLLGGAPVETIISATASAPEPVIAGILMMLIMMLILLLGWLPKLGKVVPSTAIAGFLFILGTIVIFPENATTALHGSLSTVAGVTLVVTALVDPFAGLMTGALLKFGLPLIGLGL” is “failed”.
On to “MLDLVAAFIALTTLLTYVNYRFIRLPPTIGVMATALVFSLIVQGLSELGYPILEVEMQEIIRRIDFSEVLMTWFLPALLFAGALHVDLSDLRSYKWPIGLLATAGVLIATFVIGGLAYYTFPLFGWQVDFIYCLLFGALISPTDPIAVLGILKSAGAPKPLATTIVGESLFNDGTAVVVFAIILGILQLGEAPTVSATAILFVQEAIGGVVFGAVLGYGVFVMMRGIDQYQVEVMLTLALVIGGAALAARLHVSAPIAMVVAGLIIGNHGRHYAMSDETRRYVDKFWELIDEILNALLFALIGLELLLLPFSWLHVAAAFALGGAVLVSRLLTVGPAILVLRRFRGANRQVPAGTIRILVWGGLRGGVSVALALSLPLGPERDLILSLTYIVVLVSILLQGLSIGPLVRRIYAGQPLEKSEGAH”, for which the protein production entry is “failed”.
The entry for “MLDLVSSKTTPVFSLVAFAVIHSLTASLPFKRMVMKAAGPRAEKLYLPAYSLVAVLTVLPLAYQLYKNPGRILYKIPSPWRWLMVGGQVIAGILAPMAFWNAPHRFKIRSQLSGPQASEEGSLKIKGIYRWVRDPFLLSGLVVMLLTPFMTVNLLIVYLLTTVYLFLGSLHWETRLVAQFGDEYREYQKKVHRIIPELKGSVKNPGDKASE” is “failed”; for “MLDPARGYDLIGDVHGCAHTLEHLLELLGYRLQAGVWRHPERIAIFLGDIIDRGPRIRESLHIVRDMVQAGQAYCIMGNHEFNALGWMTPALPESGHLFVREHTPRHARLIGETLAQFEAYPDEWNEFVNWFYELPLYIDAGRFRVVHACWDATLIDPLRGLHGTGCIDRHFVQASAVPGSFASNVFNRLLRGTDMRLPHGLTLTGGDGLTREFFRTKFWEDNPQTYGDVVFQPDALPEGVAKTPLSTSEKNALLRYGSNEPLLFVGHYWRSGIPAPIRPNLACLDYSAVLYGKLVAYRLDQETHVDPDKFVWVDVQRPEVSP” it is “failed”; for “MLDPARSFDIIGDVHGCALTLERLLDALGYKRVAGVWRHPRRQALFLGDIVDRGPRIREALHIVHDMVEAGQAFCIMGNHEYNALGWVTPALPGSGKAYVREHTPRHARLIDETLTQFAQHPGDWHDFVNWFYQLPLFIDAGRFRLVHACWDPRLIEPLRQQYPDGRIDEHFIQASAVSGSFADTVCNRLLRGTDMRLPDGLTLTGGDGLTRAFFRTKFWEEDPKTYGDIVFQPDALPEEVASTPLSHSQKNALLRYDEDQPMLFVGHYWRSGRPAPIRANLACLDYSAVLYGKLVAYRLDDETRIDPHKFVWVDVDRPQANQLEHHHHHH” it is “not failed”.
The entry for “MLDPYRRYRHARLIHAVRVALGLIATILLTTGLNLPHGEWASVTMLVVIGGLQHHGNIGKKAAERAIGTLVGAGVGLVLVVQQAYFGHPWLTYLGMSVVCGYFSYHAIGKGGYTALLAAITVFIVAGHGDNQVSDGLWRAVDILIGIALALAFSFAIPLYAVYSWRYNLASALRDCAQLYGRIIKGQSVTDDEHLKLLGRVNSAMLQLRSLMPSVSKEVRISMTELDAIQRNLRMCISTLEILGNTRPDASDPQAMAQMQLALKAEHRQIRVQLIGMARALQSGVTQRLEKSVEGHPENALEAPVYSALDGYRLLTRQLAATLGEMHQRLAKSARHWKI” is “failed”.
In the case of “MLDRLRFPHPWLSLTLFVMWQFLSDGISGGSIVLGLILAWIIPLMTQGFWPDPPTLLKAWKTPAYLLRVLWDIVVASVDVARLILSPRAPRPMFICYTLELTDPLAISILASTISLTPGTVSADVSDDNTLLLIHALDAEDEQEVIDTIRNRYEKPLLEMFQ”, the protein production entry is reported as “failed”.
For “MLDSAQLIFDLQKVNTTSKRISGCLDTTAITKEITEALIHDFHCVFARIWLTEPDGASLKLVASSGLHTSTNGSFARVPMGAYKVGKIAQSCIPFLSNHLANETWVKDRDWAIANNIRGFAGYPLVGHDRVIGVLAVFSEAPFVAEFLEVLQVLCMAVAIAIDAVRQLQSETNTINTTQFLDDQIP”, the protein production entry is recorded as “failed”.
The entry for “MLEATNTPSKTEEPAAPVNPALAAEAKIARIAVTVFPLLVVVAGVLGFLIPDLFKPMGVAVPYLLGVIMFCMGLTLTPPDFASVARRPWAVALGIVAHYVIMPGAGWLIAVLLQLPPELAVGLILVGCAPSGTASNVMAFLAKGDVALSVAVASVSTLIAPIVTPTLTLFLAGSFLHIDAGAMVMDIVKTVLLPVIAGLLARLFLSKLVAKVLPALPWASAVVISLIVAIVVAGSASKIVAAGAIVFLAVVLHNGFGLGLGYLAGKLGRLDDKARRALAFEVGMQNSGLAATLATAHFSPLAALPSAVFSLWHNISGAIVAAWLARRPLKD” is “failed”; for “MLEEYRKHVAERAAEGIAPKPLDANQMAALVELLKNPPAGEEEFLLDLLTNRVPPGVDEAAYVKAGFLAAIAKGEAKSPLLTPEKAIELLGTMQGGYNIHPLIDALDDAKLAPIAAKALSHTLLMFDNFYDVEEKAKAGNEYAKQVMQSWADAEWFLNRPALAEKLTVTVFKVTGETNTDDLSPAPDAWSRPDIPLHALAMLKNAREGIEPDQPGVVGPIKQIEALQQKGFPLAYVGDVVGTGSSRKSATNSVLWFMGDDIPHVPNKRGGGLCLGGKIAPIFFNTMEDAGALPIEVDVSNLNMGDVIDVYPYKGEVRNHETGELLATFELKTDVLIDEVRAGGRIPLIIGRGLTTKAREALGLPHSDVFRQAKDVAESDRGFSLAQKMVGRACGVKGIRPGAYCEPKMTSVGSQDTTGPMTRDELKDLACLGFSADLVMQSFCHTAAYPKPVDVNTHHTLPDFIMNRGGVSLRPGDGVIHSWLNRMLLPDTVGTGGDSHTRFPIGISFPAGSGLVAFAAATGVMPLDMPESVLVRFKGKMQPGITLRDLVHAIPLYAIKQGLLTVEKKGKKNIFSGRILEIEGLPDLKVEQAFELTDASAERSAAGCTIKLNKEPIIEYLNSNIVLLKWMIAEGYGDRRTLERRIQGMEKWLANPELLEADADAEYAAVIDIDLADIKEPILCAPNDPDDARPLSAVQGEKIDEVFIGSCMTNIGHFRAAGKLLDAHKGQLPTRLWVAPPTRMDAAQLTEEGYYSVFGKSGARIEIPGCSLCMGNQARVADGATVVSTSTRNFPNRLGTGANVFLASAELAAVAALIGKLPTPEEYQTYVAQVDKTAVDTYRYLNFNQLSQYTEKADGVIFQTAV” it is “not failed”.
As for “MLEIIQKTLTDNAIIGAIFSSIAIIFLGFYIRKRNILTGAASKILTKVVLTVAIPALAFTSFMKDINQKELHEGINILIWGFVIYILLIVLTKFIFARVKGDKQDVFRVLTIFGSTTFFGVPIVKAVYGSVGAMYSSIFNIAYRVFLYSYGYIKMSGVKMDKENLKKNLKEMLLNPVIIATFLGLFIWLFQGMLPQVQIGDKSYAFLRIDQTLPWLYKPLTYLDKLCSPLAWLAIGITLAEVPFKQAVGQKEPWVYSLIKIILVPVINLGLLVVLNKTGILPVSFEGMATTVIMLATPTATVAAAYAISFDKEALLTSNCSLLSTVVAVVAMPFWIVILQIIKNIGLFA”, the protein production result is on record as “failed”.
The same measure for “MLEINKIHQMNCFDFLDQVENKSVQLAVIDPPYNLSKADWDSFDSHNEFLPFTYRWIDKVLDKLDKDGSLYIFNTPFNCAFICQYLVSKGMIFQNWITWDKRDGMGSAKRGFSTGQETILFFSKSKNHTFNYDEVRVPYESTDRIKHASEKGILKNGKRWFPNPNGRLCGEVWHFSSQRHKEKVNGKTVKLTHITPKPRDLIERIIRASSNPNDLVLDCFMGSGTTAIVAKKLGRNFIGCDMNAEYVNQANFVLNQLEIN”: “not failed”; for “MLEKSLAILFALLILATLINRFLVWRLPERKGDEVTLRIRTWWGIVICFSLVISGPRWMTLTFFALISFLALKEYCTLISVHFPRWLYWVIPLNYLLIGFNCFELFLLFIPLAGFLILATWRVFVGDPSGFLHTVSAIFCGWIMTVFTLSHAAWLLMLPTINIQGGALLVLFLLALTESNDIAQYLWGKSCGRRKVVPKVSPGKTLEGLVGGVITTMIASLIIGPLLTPLNTLQVLLAGLLIGISGFCGDVVMSATKRDVGVKDSGKLLPGHGGLLDRIDSLIFTAPVFFYFIRYCCY”: “failed”.
The entry for “MLEQIFILLIALVVLVWSADKFVFGASSLARNLGISPMIIGLTIVAMGSSAPEMMVAATASMQGNPDTAIGNAIGSNITNIALVLGITALLQPLTVSSQTIKREIPLILAVTALGYWLLFDNHFSFIEGIILISGFAIYIITLLVITLKKTRGKPSDDPLIIEAEQDVAAAVSMKLSLIWLGVGIILLPLSASFLVDSSVYIAKAYGISDLVIGLTIIAIGTSLPELAASIMSIIKKEDDLALGNIIGSNIFNILAVLPIAGLIAPGNIDALAASRDAPYMLGITLLLFILCFSRRLGAFRITRAKGALLLLSFIAYQVLLFSQLS” is “failed”.
Turning to “MLERIANIQKKLSKSIVERKINEVRKVAAVDVSYKEEKARAALVITTFPEGEVLKTKVIETTVSFPYIPTFFFLRETKPILIATKGETFDVLIVEGHGKAHPRGYGLASHIGVVLRKPTIGVAKRLLKNTPKDTYKKVGKVYVSVGNLITLEDATKIIRAILDESGYPKPLKLADKLSKGRIYEVKNTPSPNRSRKKRGNRGKDNNNSQGNLEHHHHHH”, the protein production result is reported as “failed”.
